These results are taken from patent US7807629 (ALCON RESEARCH, dated 2010).

For the data set, the target named is T1, human bradykinin B2 receptor (human, UniProt P30411 1-391).
T1 sequence (looked up): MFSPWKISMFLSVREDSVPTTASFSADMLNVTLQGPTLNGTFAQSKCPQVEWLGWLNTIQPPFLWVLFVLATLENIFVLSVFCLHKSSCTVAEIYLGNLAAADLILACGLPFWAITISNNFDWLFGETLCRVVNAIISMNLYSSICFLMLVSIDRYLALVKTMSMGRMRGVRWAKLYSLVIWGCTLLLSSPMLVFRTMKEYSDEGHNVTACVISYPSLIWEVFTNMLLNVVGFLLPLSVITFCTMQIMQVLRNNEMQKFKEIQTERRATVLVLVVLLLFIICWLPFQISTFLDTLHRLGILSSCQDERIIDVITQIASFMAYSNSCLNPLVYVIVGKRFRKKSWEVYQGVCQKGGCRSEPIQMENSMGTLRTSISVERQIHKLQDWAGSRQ
The data set is described as follows: cell-based or functional assay.

Square brackets hold non-standard residues; d marks the D form. Ends that are not written are not given here. Hyp = O=C(O)[C@@H]1C[C@@H](O)CN1

Regarding RP[Hyp]GFSPFR [Hyp^3-BK], the “[Ca^2+]i mobilization, Agonist Potency (EC50), h-NPE cells” value (“[Ca^2+]i mobilization … h-NPE cells” below) turned out to be 6 nM and the “[Ca^2+]i mobilization, Agonist Potency (EC50), h-TM cells” value (“[Ca^2+]i mobilization … h-TM cells” for short) worked out at 0.9 nM.
As to KRPPGFSPFR [Lys-BK], the “[Ca^2+]i mobilization, Agonist Potency (EC50), h-CM cells” value came to 3.2 nM; the “[Ca^2+]i mobilization … h-NPE cells” value came to 19.6 nM; the “[Ca^2+]i mobilization … h-TM cells” value came to 1.9 nM.
Take MKRPPGFSPFR [Met-Lys-BK]: the “[Ca^2+]i mobilization, Agonist Potency (EC50), h-CM cells” value turned out to be 16.1 nM; the “[Ca^2+]i mobilization … h-NPE cells” value came out at 125 nM; the “[Ca^2+]i mobilization … h-TM cells” value is 6.5 nM.
